Data reported in publication PMC6424025, “Human DNA polymerase delta is a pentameric holoenzyme with a dimeric p12 subunit” (Life Science Alliance, 2019).
Changes are numbered by the printed parent chain. Numbers in names are those of the source. Where two headings read alike, the source gives them in different places. One block for each molecule: values may come before it.

Columns and labels:
PCNA (Homo sapiens) [1] = molecular target: PCNA (Homo sapiens) (UniProt P12004); conditions: cited from earlier work
Sequence of PCNA (Homo sapiens) (P12004 whole entry): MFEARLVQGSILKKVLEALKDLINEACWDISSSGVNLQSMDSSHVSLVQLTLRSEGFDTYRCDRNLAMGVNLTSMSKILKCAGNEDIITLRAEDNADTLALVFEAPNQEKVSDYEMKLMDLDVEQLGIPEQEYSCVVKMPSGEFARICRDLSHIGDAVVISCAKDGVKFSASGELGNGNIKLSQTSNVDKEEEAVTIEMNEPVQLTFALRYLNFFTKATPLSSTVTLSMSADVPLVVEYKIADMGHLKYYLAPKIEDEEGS

PCNA (Homo sapiens) [2] = molecular target: PCNA (Homo sapiens) (UniProt P12004); conditions: cited from earlier work; remark: listed apart in the source
[3] = molecular target: the molecule itself; assay: cross-linking; 1-5 μg of protein in 20 mM Hepes pH 7.5, 0.5% formaldehyde, 30 min at 25°C, 12% SDS-PAGE, Coomassie
[4] = molecular target: the molecule itself; assay: ITC; p12 (10 μM) in the cell, p12 (120 μM) in the syringe, 30°C, 20 mM Hepes pH 7.4, 150 mM NaCl, single-site model; dimer to monomers
[5] = molecular target: T1, human PCNA, wild type, purified (human, UniProt P12004 1-261); assay: ITC; p12 (10 μM) in the cell, PCNA (120 μM) in the syringe, 25°C, 20 mM Hepes pH 7.4, 150 mM NaCl, single-site model; p12 taken as a dimer and PCNA as a trimer; conditions: both partners purified
T1 construct: Proliferating cell nuclear antigen, human; amplified from cDNA of HeLa total RNA; Treated as a trimer in the ITC analysis; also called hPCNA; proliferating cell nuclear antigen; source: E. coli BL21 DE3, purified (expressed as GST fusion, glutathione-sepharose)
T1 sequence (P12004 whole entry, the tested form may be a part): as the sequence (P12004 whole entry) above

[6] = molecular target: the molecule itself; assay: native gel or EMSA; 12% native PAGE, 80 V for 5 h at 4°C, 25 mM Tris base, 192 mM glycine, pH 8.8, Coomassie staining; migration compared with carbonic anhydrase or with the mutant

Molecule: DNA polymerase delta holoenzyme (from UniProt P28340)
Kd (PCNA (Homo sapiens) [1]): 7.1 nM

Molecule: DNA polymerase delta core (from UniProt P28340)
Kd (PCNA (Homo sapiens) [2]): 73 nM

Kd [5]: 10000 nM
B1: p12 subunit of human DNA polymerase delta, wild type, purified, GST tag cleaved off (natural protein, UniProt Q9HCU8 1-107, looked up)
chain: MGRKRLITDSYPVVKRREGPAGHSKGELAPELGEEPQPRDEEEAELELLRQFDLAWQYGPCTGITRLQRWCRAKQMGLEPPPEVWQVLKTHPGDPRFQCSLWHLYPL
notes: DNA polymerase delta subunit 4 (p12), human; PCR product from pCOLA-hPold234; also called untagged p12; wild-type p12; source: E. coli BL21 DE3, purified (glutathione-sepharose; GST cleaved by PreScission protease); not shown: GST, N-terminal, cleaved
stoichiometry N [3]: 2
Kd [4]: ~146 nM
dH [4]: -1.82 kcal/mol
stoichiometry N [4]: ~0.6

B2: p12 L104A, Y105A mutant, purified, GST tag cleaved off (natural protein, human, UniProt Q9HCU8 1-107, looked up)
chain: B1 chain with L104A, Y105A
notes: DNA polymerase delta subunit 4 (p12), human; PCR product from pCOLA-hPold234; also called PIP-motif p12 mutant; source: E. coli BL21 DE3, purified (glutathione-sepharose; GST cleaved by PreScission protease); not shown: GST, N-terminal, cleaved
stoichiometry N [3]: 2

B3: Cdm1 of Schizosaccharomyces pombe, wild type, purified (natural protein, S. pombe, UniProt O59835 1-160, looked up)
chain: MKKRTTQAKKSGQNTNIRDVFPHVVRSNSSQSHIGKKVSSEQSPTPDVTITTKTLDERIKEDDELSKEVEEAWNQIMAERISEPIHCENITKVEFILHHFDTTARYGPYLGMTRMQRWKRAKNFNLNPPETVGKILMLEEADEENRKRESLFYDLQTIPG
notes: Cdm1, fourth subunit of DNA polymerase delta, S. pombe; 160 aa, 18.6 kD; PCR-amplified from genomic DNA; also called wild-type Cdm1; source: E. coli BL21 DE3, purified (bacterial overexpression from pNA716)
binding result [6]: binds
